This experiment addresses T1, recombinant human laminin-511 (human, UniProt O15230 36-3695; P07942 22-1786; P11047 34-1609).
T1 construct: the FLAG tag stands just after the N-terminal signal peptide cleavage site; αβγ heterotrimer; also called LM511; not shown: FLAG, N-terminal, kept; copies: + +
The experiment is described as follows: ELISA; solid-phase binding assay: 96-well plates coated with laminins at 5 nM overnight at 4°C, blocked with 3% BSA; 30 nM integrins for 3 h at room temperature with 1 mM Mn2+; bound integrins detected by biotinylated anti-Velcro pAb and HRP-streptavidin (absorbance at 490 nm). The conditions noted are these: both partners purified. Background: ELISA stands for enzyme-linked immunosorbent assay.

B1: recombinant integrin αvβ3 (receptor, human)
chain 1: FNLDVDSPAEYSGPEGSYFGFAVDFFVPSASSRMFLLVGAPKANTTQPGIVEGGQVLKCDWSSTRRCQPIEFDATGNRDYAKDDPLEFKSHQWFGASVRSKQDKILACAPLYHWRTEMKQEREPVGTCFLQDGTKTVEYAPCRSQDIDADGQGFCQGGFSIDFTKADRVLLGGPGSFYWQGQLISDQVAEIVSKYDPNVYSIKYNNQLATRTAQAIFDDSYLGYSVAVGDFNGDGIDDFVSGVPRAARTLGMVYIYDGKNMSSLYNFTGEQMAAYFGFSVAATDINGDDYADVFIGAPLFMDRGSDGKLQEVGQVSVSLQRASGDFQTTKLNGFEVFARFGSAIAPLGDLDQDGFNDIAIAAPYGGEDKKGIVYIFNGRSTGLNAVPSQILEGQWAARSMPPSFGYSMKGATDIDKNGYPDLIVGAFGVDRAILYRARPVITVNAGLEVYPSILNQDNKTCSLPGTALKVSCFNVRFCLKADGKGVLPRKLNFQVELLLDKLKQKGAIRRALFLYSRSPSHSKNMTISRGGLMQCEELIAYLRDESEFRDKLTPITIFMEYRLDYRTAADTTGLQPILNQFTPANISRQAHILLDCGEDNVCKPKLEVSVDSDQKKIYIGDDNPLTLIVKAQNQGEGAYEAELIVSIPLQADFIGVVRNNEALARLSCAFKTENQTRQVVCDLGNPMKAGTQLLAGLRFSVHQQSEMDTSVKFDLQIQSSNLFDKVSPVVSHKVDLAVLAAVEIRGVSSPDHVFLPIPNWEHKENPETEEDVGPVVQHIYELRNNGPSSFSKAMLHLQWPYKYNNNTLLYILHYDIDGPMNCTSDMEINPLRIKISSLQTTEKNDTVAGQGERDHLITKRDLALSEGDIHTLGCGVAQCLKIVCQVGRLDRGKSAILYVKSLLWTETFMNKENQNHSYSLKSSASFNVIEFPYKNLPIEDITNSTLVTTNVTWGIQPAPMPV
chain 2: GPNICTTRGVSSCQQCLAVSPMCAWCSDEALPLGSPRCDLKENLLKDNCAPESIEFPVSEARVLEDRPLSDKGSGDSSQVTQVSPQRIALRLRPDDSKNFSIQVRQVEDYPVDIYYLMDLSYSMKDDLWSIQNLGTKLATQMRKLTSNLRIGFGAFVDKPVSPYMYISPPEALENPCYDMKTTCLPMFGYKHVLTLTDQVTRFNEEVKKQSVSRNRDAPEGGFDAIMQATVCDEKIGWRNDASHLLVFTTDAKTHIALDGRLAGIVQPNDGQCHVGSDNHYSASTTMDYPSLGLMTEKLSQKNINLIFAVTENVVNLYQNYSELIPGTTVGVLSMDSSNVLQLIVDAYGKIRSKVELEVRDLPEELSLSFNATCLNNEVIPGLKSCMGLKIGDTVSFSIEAKVRGCPQEKEKSFTIKPVGFKDSLIVQVTFDCDCACQAQAEPNSHRCNNGNGTFECGVCRCGPGWLGSQCECSEEDYRPSQQDECSPREGQPVCSQRGECLCGQCVCHSSDFGKITGKYCECDDFSCVRYKGEMCSGHGQCSCGDCLCDSDWTGYYCNCTTRTDTCMSSNGLLCSGRGKCECGSCVCIQPGSYGDTCEKCPTCPDACTFKKECVECKKFDRGALHDENTCNRYCRDEIESVKELKDTGKDAVNCTYKNEDDCVVRFQYYEDSSGKSILYVVEEPECPKGPD
notes: integrin αv subunit, human, extracellular domain; integrin β3 subunit, human, extracellular domain; truncated soluble heterodimer; vectors from Dr. Junichi Takagi (Takagi et al, 2001, 2002a, b); Purification on ANTI-FLAG gel implies a FLAG tag
Consider B1, for which the binding result is “binds”.

B2: recombinant integrin αvβ5 (receptor, human)
chain 1: FNLDVDSPAEYSGPEGSYFGFAVDFFVPSASSRMFLLVGAPKANTTQPGIVEGGQVLKCDWSSTRRCQPIEFDATGNRDYAKDDPLEFKSHQWFGASVRSKQDKILACAPLYHWRTEMKQEREPVGTCFLQDGTKTVEYAPCRSQDIDADGQGFCQGGFSIDFTKADRVLLGGPGSFYWQGQLISDQVAEIVSKYDPNVYSIKYNNQLATRTAQAIFDDSYLGYSVAVGDFNGDGIDDFVSGVPRAARTLGMVYIYDGKNMSSLYNFTGEQMAAYFGFSVAATDINGDDYADVFIGAPLFMDRGSDGKLQEVGQVSVSLQRASGDFQTTKLNGFEVFARFGSAIAPLGDLDQDGFNDIAIAAPYGGEDKKGIVYIFNGRSTGLNAVPSQILEGQWAARSMPPSFGYSMKGATDIDKNGYPDLIVGAFGVDRAILYRARPVITVNAGLEVYPSILNQDNKTCSLPGTALKVSCFNVRFCLKADGKGVLPRKLNFQVELLLDKLKQKGAIRRALFLYSRSPSHSKNMTISRGGLMQCEELIAYLRDESEFRDKLTPITIFMEYRLDYRTAADTTGLQPILNQFTPANISRQAHILLDCGEDNVCKPKLEVSVDSDQKKIYIGDDNPLTLIVKAQNQGEGAYEAELIVSIPLQADFIGVVRNNEALARLSCAFKTENQTRQVVCDLGNPMKAGTQLLAGLRFSVHQQSEMDTSVKFDLQIQSSNLFDKVSPVVSHKVDLAVLAAVEIRGVSSPDHVFLPIPNWEHKENPETEEDVGPVVQHIYELRNNGPSSFSKAMLHLQWPYKYNNNTLLYILHYDIDGPMNCTSDMEINPLRIKISSLQTTEKNDTVAGQGERDHLITKRDLALSEGDIHTLGCGVAQCLKIVCQVGRLDRGKSAILYVKSLLWTETFMNKENQNHSYSLKSSASFNVIEFPYKNLPIEDITNSTLVTTNVTWGIQPAPMPV
chain 2: GLNICTSGSATSCEECLLIHPKCAWCSKEDFGSPRSITSRCDLRANLVKNGCGGEIESPASSFHVLRSLPLSSKGSGSAGWDVIQMTPQEIAVNLRPGDKTTFQLQVRQVEDYPVDLYYLMDLSLSMKDDLDNIRSLGTKLAEEMRKLTSNFRLGFGSFVDKDISPFSYTAPRYQTNPCIGYKLFPNCVPSFGFRHLLPLTDRVDSFNEEVRKQRVSRNRDAPEGGFDAVLQAAVCKEKIGWRKDALHLLVFTTDDVPHIALDGKLGGLVQPHDGQCHLNEANEYTASNQMDYPSLALLGEKLAENNINLIFAVTKNHYMLYKNFTALIPGTTVEILDGDSKNIIQLIINAYNSIRSKVELSVWDQPEDLNLFFTATCQDGVSYPGQRKCEGLKIGDTASFEVSLEARSCPSRHTEHVFALRPVGFRDSLEVGVTYNCTCGCSVGLEPNSARCNGSGTYVCGLCECSPGYLGTRCECQDGENQSVYQNLCREAEGKPLCSGRGDCSCNQCSCFESEFGKIYGPFCECDNFSCARNKGVLCSGHGECHCGECKCHAGYIGDNCNCSTDISTCRGRDGQICSERGHCLCGQCQCTEPGAFGEMCEKCPTCPDACSTKRDCVECLLLHSGKPDNQTCHSLCRDEVITWVDTIVKDDQEAVLCFYKTAKDCVMMFTYVELPSGKSNLTVLREPECGNTPN
notes: integrin αv subunit, human, extracellular domain; integrin β5 subunit, human, extracellular domain; cDNA amplified from RNA of T98G human glioblastoma cells; truncated soluble heterodimer; Purification on ANTI-FLAG gel implies a FLAG tag
As to B2, the binding result is “binds”.

The values above are taken from publication PMC6238537 (Life Science Alliance, 2018).
